The values below come from PMC10303064, “Sulfated Lactosyl Archaeol Archaeosome-Adjuvanted Vaccine Formulations Targeting Rabbit Hemorrhagic Disease Virus Are Immunogenic and Efficacious” (Vaccines, 2023).

The data set deals with the molecule itself. As to the kind of experiment: negative-stain transmission electron microscopy; purified RHDV2 VP60 protein alone adsorbed on glow-discharged formvar/carbon copper grids, stained with 1% uranyl acetate, imaged at 300 keV.

B1: RHDV2 VP60 capsid protein (natural protein)
chain: EGKARAAPQGETAGTATTASVPGTTTDGMDPGVVATTSVVTTENASTSIATAGIGGPPQQVDQQETWRTNFYYNDVFTWSVADAPGNILYTVQHSPQNNPFTAVLSQMYAGWAGGMQFRFIVAGSGVFGGRLVAAVIPPGIEIGPGLEVRQFPHVVIDARSLEPVTITMPDLRPNMYHPTGNPGLVPTLVLSVYNNLINPFGGSTSAIQVTVETRPSEDFEFVMIRAPSSKTVDSISPADLLTTPVLTGVGTDNRWNGEIVGLQPVPGGFSTCNRHWNLNGSTFGWSSPRFAAIDHDGGNASFPGSSSSNVLELWYASAGSATDNPISQIAPDGFPDMSFVPFSGSTIPTAGWVGFGGIWNSNNGAPFVTTMQAYELGFATGAPSNPQPTTTTSGAQIVAKSIYGVANGINQTTAGLFVMASGVISTPNSSAITYTPQPNRIVNAPGTPAAAPIGKNTPIMFASVVRRTGDINAEAGSTNGTQYGAGSQPLPVTVGLSLNNYSSALMPGQFFVWQLNFASGFMELGLSVDGYFYAGTGALATLIDLSELVDIRPVGPRPSTSTLVYNLGGTTNGFSYV
notes: VP60 capsid protein of rabbit hemorrhagic disease virus 2 (RHDV2); the tag was removed after purification; After TEV cleavage a single G of the ENLYFQG site probably stays in front of E2 (surmised); Self-assembles into virus-like particles of ~30 nm; also called RHDV2 VLP; RHDV2 capsid protein; source: Baculovirus expression system (GenScript), purified, tag removed; not shown: His6, N-terminal, …
Regarding B1, the binding result is listed as “binds”.
